Experimental data from patent US9914914B2, “Polymerase capable of producing non-DNA nucleotide polymers” (Medical Research Council, priority 2012, dated 2018).
Where a chain is given by its changes, count along the chain named. Names may count otherwise. “Also recorded” adds a separate entry of the source.

B1: D4K: Tgo polymerase with V93Q, D141A, E143A, L403P, A485L, P657T, E658Q, K659H, Y663H, E664K, D669A, K671N, T676I; SEQ ID NO:5 (protein)
chain: MILDTDYITEDGKPVIRIFKKENGEFKIDYDRNFEPYIYALLKDDSAIEDVKKITAERHGTTVRVVRAEKVKKKFLGRPIEVWKLYFTHPQDQPAIRDKIKEHPAVVDIYEYDIPFAKRYLIDKGLIPMEGDEELKMLAFAIATLYHEGEEFAEGPILMISYADEEGARVITWKNIDLPYVDVVSTEKEMIKRFLKVVKEKDPDVLITYNGDNFDFAYLKKRSEKLGVKFILGREGSEPKIQRMGDRFAVEVKGRIHFDLYPVIRRTINLPTYTLEAVYEAIFGQPKEKVYAEEIAQAWETGEGLERVARYSMEDAKVTYELGKEFFPMEAQLSRLVGQSLWDVSRSSTGNLVEWFLLRKAYERNELAPNKPDERELARRRESYAGGYVKEPERGLWENIVYPDFRSLYPSIIITHNVSPDTLNREGCEEYDVAPQVGHKFCKDFPGFIPSLLGDLLEERQKVKKKMKATIDPIEKKLLDYRQRLIKILANSFYGYYGYAKARWYCKECAESVTAWGRQYIETTIREIEEKFGFKVLYADTDGFFATIPGADAETVKKKAKEFLDYINAKLPGLLELEYEGFYKRGFFVTKKKYAVIDEEDKITTRGLEIVRRDWSEIAKETQARVLEAILKHGDVEEAVRIVKEVTEKLSKYEVPTQHLVIHKQITRALNDYKAIGPHVAVAKRLAARGIKIRPGTVISYIVLKGSGRIGDRAIPFDEFDPAKHKYDAEYYIENQVLPAVERILRAFGYRKEDLRYQKTRQVGLGAWLKPKT
modifications: Polymerase D4YK derived from T. gorgonarius
B2: D4K521: D4K with the further mutation I521L, SEQ ID NO:7 (protein)
chain: B1 chain with I521L
modifications: Mutant polymerase D4YK with I521L mutation, derived from T. gorgonarius
B3: D4: prior art TgoT-derived RNA polymerase with E664Q, SEQ ID NO:3 (protein)
chain: B1 chain with P403L, K664Q
modifications: Prior art T. gorgonarius (Tgo) derived polymerase D4 with mutated patch 10 region
B4: Therminator: 9° N exo−: A485L polymerase, commercial (protein, listed as Thermococcus gorgonarius)
chain: MILDTDYITEDGKPVIRIFKKENGEFKIDYDRNFEPYIYALLKDDSAIEDVKKITAERHGTTVRVVRAEKVKKKFLGRPIEVWKLYFTHPQDVPAIRDKIKEHPAVVDIYEYDIPFAKRYLIDKGLIPMEGDEELKMLAFDIETLYHEGEEFAEGPILMISYADEEGARVITWKNIDLPYVDVVSTEKEMIKRFLKVVKEKDPDVLITYNGDNFDFAYLKKRSEKLGVKFILGREGSEPKIQRMGDRFAVEVKGRIHFDLYPVIRRTINLPTYTLEAVYEAIFGQPKEKVYAEEIAQAWETGEGLERVARYSMEDAKVTYELGKEFFPMEAQLSRLVGQSLWDVSRSSTGNLVEWFLLRKAYERNELAPNKPDERELARRRESYAGGYVKEPERGLWENIVYLDFRSLYPSIIITHNVSPDTLNREGCEEYDVAPQVGHKFCKDFPGFIPSLLGDLLEERQKVKKKMKATIDPIEKKLLDYRQRLIKILANSFYGYYGYAKARWYCKECAESVTAWGRQYIETTIREIEEKFGFKVLYADTDGFFATIPGADAETVKKKAKEFLDYINAKLPGLLELEYEGFYKRGFFVTKKKYAVIDEEDKITTRGLEIVRRDWSEIAKETQARVLEAILKHGDVEEAVRIVKEVTEKLSKYEVPPEKLVIYEQITRDLKDYKATGPHVAVAKRLAARGIKIRPGTVISYIVLKGSGRIGDRAIPFDEFDPAKHKYDAEYYIENQVLPAVERILRAFGYRKEDLRYQKTRQVGLGAWLKPKT
B5: RT-521K: Tgo V93Q, D141A, E143A, A485L, I521L, E664K, K726R, A385V; SEQ ID NO:14 (protein)
chain: B4 chain with V93Q, D141A, E143A, A385V, E429G, F445L, I521L, E664K, K726R
modifications: T. go derived polymerase designated RT-521K
B6: RT-521: Tgo V93Q, D141A, E143A, A485L, I521L, K726R, E429G; SEQ ID NO:12 (protein)
chain: B4 chain with V93Q, D141A, E143A, E429G, I521L, K726R
modifications: T. go derived RT-521 polymerase
B7: Dpo4: commercial DNA polymerase (protein, UniProt Q97W02 1-352, looked up)
DNA polymerase IV: MIVLFVDFDYFYAQVEEVLNPSLKGKPVVVCVFSGRFEDSGAVATANYEARKFGVKAGIPIVEAKKILPNAVYLPMRKEVYQQVSSRIMNLLREYSEKIEIASIDEAYLDISDKVRDYREAYNLGLEIKNKILEKEKITVTVGISKNKVFAKIAADMAKPNGIKVIDDEEVKRLIRELDIADVPGIGNITAEKLKKLGINKLVDTLSIEFDKLKGMIGEAKAKYLISLARDEYNEPIRTRVRKSIGRIVTMKRNSRNLEEIKPYLFRAIEESYYKLDKRIPKAIHVVAVTEDLDIVSRGRTFPHGISKETAYSESVKLLQKILEEDERKIRRIGVRFSKFIEAIGLDKFFDT

Tests used:
[1] = system: CCRF-CEM; test: IC50 of nucleoside drugs and TempN polymer on CCRF-CEM cells; assay type: cell-based; details: Homo sapiens
[2] = system: Ramos; test: IC50 of nucleoside drugs and TempN polymer on Ramos cells; assay type: cell-based; details: Homo sapiens
Experimental: The polymer linked to the targeting protein was then mixed with Nanocargo transfection reagent according to the manufacturer's instructions (Tecrea, UK), and added to Ramos cells at a final concentration of 40 nM (polymer concentration). After 96 hours incubation in a humidified atmosphere at 37° C. (5% CO2), WST-1 reagent (Roche, UK) was added to the cells to measure cell growth inhibition (FIG. 42). […] Only when the toxic polymer is targeted to the Ramos cells via CD20 is cell growth inhibited.

[3] = system: arabinosyl-NTPs, DNA template; test: Polymerase dilution experiment, ANA synthesis, D4K vs D4K521; assay type: biochemical; details: for polymerase concentration at which full-length (+57 nt) ANA product is present: 0.125 mM each arabinosyl-NTP, 1 min 94° C., 30 sec 50° C., 2 min 65° C.
Experimental: In this experiment, the concentration of buffer (1× Thermopol (NEB) buffer), arabinosyl-NTPs (0.125 mM each), primer (200 nM), template (400 nM), the reaction volume ([…]) and extension conditions (1 min 94° C., 30 sec 50° C., 2 min 65° C.) were held constant.

[4] = system: arabinosyl-NTPs, DNA template; test: Polymerase dilution experiment, ANA synthesis, D4 vs D4K; assay type: biochemical
Experimental: In this experiment, the concentration of buffer (1× Thermopol (NEB) buffer), arabinosyl-NTPs (0.25 mM each), primer (200 nM), template (400 nM), the reaction volume ([…]) and extension conditions (1 min 94° C., 30 sec 50° C., 2 min 65° C.) were held constant.

[5] = system: faNTP, DNA template; test: FANA synthesis by D4YK; assay type: biochemical
Experimental: (a) FANA synthesis at reduced faNTP concentrations. […] (b) Timecourse of YtRtemp8 (encoding 98 nt incorporations) synthesis by D4YK, showing substantial full-length synthesis in only 5 min. (c) Timecourse of ApLib5 (encoding 78 nt incorporations, of which 40 are random nucleotides) synthesis by D4YK, again showing substantial full length product in only 5 min.
Not only is FANA synthesis effective at relatively low FANA-NTP (faNTP) concentrations (less than 50 μM each, compared to 250 μM each for ANA synthesis) but synthesis of both a […] incorporation tRNA and an N40 library is efficient in less than 5 minutes (FIG. 15). This rapid synthesis and toleration of a wide range of substrate concentrations is indicative of an efficient polymerase, but neither single incorporation kinetics nor processivity have been investigated for D4YK.

[6] = system: FANA template; test: FANA reverse transcriptase screen (PCR from cDNA); assay type: biochemical; details: judged by PCR from the cDNA
Experimental: ANA and FANA were synthesised using D4YK from DNA primers against a biotinylated template. This was captured onto streptavidin-coated paramagnetic beads and the nascent ANA or FANA strand eluted using two washes in 30 mM NaOH. The single stranded products were neutralised, ethanol precipitated and used as a template to screen a panel of commercial polymerases as well as in-house engineered polymerases for RT activity.
We have learnt that RT-521 must be removed before PCR as even low concentrations of RT-521 inhibit PCR. In this case, the reverse transcription reactions were purified by Exol (NEB) treatment to remove unextended primers and 0.05 volumes (1 μl out of 20 μl reaction) were used as template for 20 μl PCR with FastStart Taq (Roche). If the reactions had been purified by a method which removed RT-521 (e.g. silica column or phenol:chloroform extraction) the PCR for the RT-521 reaction would have been expected to be positive, as observed in other experiments (FIG. 19).

Molecule | IC50 [1] [nM] | IC50 [2] [nM] | FANA RT activity [6] | also measured
Nc1ccn([C@@H]2O[C@H](CO)C(O)C2O)c(=O)n1 (stereo partly drawn) [AraC, 9-beta-D-arabinofuranosyl-cytidine] | 12.9 | 22.7 |  | 
Nc1nc2c(ncn2[C@@H]2O[C@H](CO)C(O)C2O)c(=O)[nH]1 (stereo partly drawn) [AraG, 9-beta-D-arabinofuranosyl-guanosine] | 884 | ~100000 |  | 
Nc1nc(Cl)nc2c1ncn2[C@@H]1O[C@H](CO)[C@@H](O)[C@@H]1F [Clofarabine, 9-beta-D-fluoroarabinosyl-2′chloroadenosine] | 20 | 18 |  | 
Nc1nc(F)nc2c1ncn2[C@@H]1O[C@H](CO)[C@@H](O)[C@@H]1O [Fludarabine, 9-beta-D-arabinofuranosyl-2′fluoroadenosine] | 864 | 1300 |  | 
Nc1ccn([C@@H]2O[C@H](CO)C(O)C2(F)F)c(=O)n1 (some centres unmarked) [GemC, 2′2′-difluorodeoxycytidine] | 11.7 | 1.6 |  | 
B1 |  |  |  | polymerase concentration at which full-length (+57 nt) ANA product is present [3]: 18.8 nM; polymerase concentration at which full-length (+57 nt) ANA product is present ([4]; 0.25 mM each arabinosyl-NTP, 1 min 94° C., 30 sec 50° C., 2 min 65° C.): 18.8 nM; polymerase concentration for full-length ANA product relative to D4 ([4]; fraction of the concentration required for D4): less than 1/15; time for efficient FANA synthesis ([5]; 97 nt incorporation tRNA and N40 library): less than 5 minutes; time to substantial full-length FANA product ([5]; ApLib5 (78 nt incorporations, 40 random)): 5 min; time to substantial full-length FANA synthesis ([5]; YtRtemp8 (98 nt incorporations)): 5 min; faNTP concentration down to which FANA synthesis remains robust ([5]; YtRtemp9 (93 nt incorporations), each faNTP): ≥ 31.2 µM; FANA-NTP concentration at which FANA synthesis is effective ([5]; each faNTP, compared to 250 μM each for ANA synthesis): less than 50 μM
B2 |  |  |  | polymerase concentration at which full-length (+57 nt) ANA product is present [3]: 2.3 nM; polymerase concentration for full-length ANA product relative to D4K ([3]; fraction of the concentration required for D4K): less than 1/8
B3 |  |  |  | full-length (+57 nt) ANA product at 75 nM polymerase ([4]; 75 nM polymerase, 0.25 mM each arabinosyl-NTP): no full-length product; full-length (+57 nt) ANA product at 300 nM polymerase ([4]; 300 nM polymerase, 0.25 mM each arabinosyl-NTP): very little full-length
B4 |  |  | weak FANA RT activity | 
B5 |  |  | robust FANA RT activity | 
B6 |  |  | does have FANA RT activity; also recorded: effective FANA reverse transcriptase | 
B7 |  |  | weak RT activity | 
